Target: XRCC4 (X-ray repair cross-complementing protein 4) (UniProt Q13426)
Assay: co-IP with anti-Flag M2 beads
Conditions: reference: Flag-AATF wild type, IR; sites S189

**Q.** For “AATF (apoptosis antagonizing transcription factor) (from UniProt Q9NY61) Flag-AATF S189A, IR”, which “binding against the reference” value is on record?
**A.** stronger

— PMC12120020
